Experimental data from publication doi:10.1101/2024.08.25.607996.

Tests used:
[1] = target: feline APN ectodomain without the Fc fusion (dimer) (feline) (UniProt P79171); assay: cryo-EM structure
[2] = target: FCoV-23 S domain B (receptor-binding domain), residues 529-677, avi- and His-tagged (FCoV-23 (feline coronavirus)); assay: BLI

Chain of feline APN-Fc ectodomain (dimeric) (P79171 64-967): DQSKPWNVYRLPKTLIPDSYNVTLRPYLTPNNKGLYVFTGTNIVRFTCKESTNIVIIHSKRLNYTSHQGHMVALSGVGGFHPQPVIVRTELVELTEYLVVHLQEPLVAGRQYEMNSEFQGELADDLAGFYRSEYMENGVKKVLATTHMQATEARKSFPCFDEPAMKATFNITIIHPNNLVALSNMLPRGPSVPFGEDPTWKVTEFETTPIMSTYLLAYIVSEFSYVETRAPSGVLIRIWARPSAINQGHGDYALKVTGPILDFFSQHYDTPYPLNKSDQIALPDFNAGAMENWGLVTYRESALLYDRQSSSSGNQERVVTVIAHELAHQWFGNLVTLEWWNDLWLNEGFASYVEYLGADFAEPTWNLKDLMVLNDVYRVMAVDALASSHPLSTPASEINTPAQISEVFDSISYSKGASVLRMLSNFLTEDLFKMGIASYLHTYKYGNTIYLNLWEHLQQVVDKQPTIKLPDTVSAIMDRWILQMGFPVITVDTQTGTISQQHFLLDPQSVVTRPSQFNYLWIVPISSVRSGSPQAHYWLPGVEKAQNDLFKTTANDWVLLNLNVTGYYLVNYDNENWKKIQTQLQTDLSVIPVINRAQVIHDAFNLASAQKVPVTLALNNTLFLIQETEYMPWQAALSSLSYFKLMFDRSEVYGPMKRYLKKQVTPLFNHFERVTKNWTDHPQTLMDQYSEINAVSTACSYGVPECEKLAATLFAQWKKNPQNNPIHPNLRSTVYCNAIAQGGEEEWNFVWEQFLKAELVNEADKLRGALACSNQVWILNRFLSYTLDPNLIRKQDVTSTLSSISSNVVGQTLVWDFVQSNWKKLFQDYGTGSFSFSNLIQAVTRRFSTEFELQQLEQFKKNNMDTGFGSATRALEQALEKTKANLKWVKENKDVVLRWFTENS
Chain of feline APN ectodomain without the Fc fusion (dimer) (feline) (P79171 64-967): as above
Chain of canine APN-Fc ectodomain (dimeric) (P79143 71-975): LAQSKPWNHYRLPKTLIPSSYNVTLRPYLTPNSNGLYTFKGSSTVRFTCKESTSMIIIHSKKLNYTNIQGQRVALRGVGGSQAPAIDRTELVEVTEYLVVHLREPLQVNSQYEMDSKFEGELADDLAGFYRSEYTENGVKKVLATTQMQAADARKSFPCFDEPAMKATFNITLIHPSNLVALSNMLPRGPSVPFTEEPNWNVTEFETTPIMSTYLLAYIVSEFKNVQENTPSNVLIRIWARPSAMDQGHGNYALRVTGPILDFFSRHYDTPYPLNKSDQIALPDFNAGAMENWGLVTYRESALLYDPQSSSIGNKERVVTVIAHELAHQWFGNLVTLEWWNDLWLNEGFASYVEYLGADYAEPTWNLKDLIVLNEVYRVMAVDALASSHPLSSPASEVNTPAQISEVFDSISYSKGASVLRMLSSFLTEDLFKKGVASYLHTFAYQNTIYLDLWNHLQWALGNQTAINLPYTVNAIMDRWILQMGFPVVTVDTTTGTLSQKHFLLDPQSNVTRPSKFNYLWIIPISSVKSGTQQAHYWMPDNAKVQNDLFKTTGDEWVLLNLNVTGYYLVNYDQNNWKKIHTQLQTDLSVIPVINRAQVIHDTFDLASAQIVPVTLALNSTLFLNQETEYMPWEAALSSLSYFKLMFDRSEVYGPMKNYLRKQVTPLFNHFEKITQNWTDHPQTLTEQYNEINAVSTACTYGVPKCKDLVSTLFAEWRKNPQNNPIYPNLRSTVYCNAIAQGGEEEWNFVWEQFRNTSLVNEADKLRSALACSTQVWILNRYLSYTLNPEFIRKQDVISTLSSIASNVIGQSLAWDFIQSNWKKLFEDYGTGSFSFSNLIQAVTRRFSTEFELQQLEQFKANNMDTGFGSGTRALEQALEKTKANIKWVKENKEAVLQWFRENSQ

Row | Substance | stoichiometry N (RBD per APN protomer) [1] | Kd [2] [nM]
1 | FCoV-23 S domain B (receptor-binding domain), residues 529-677, avi- and His-tagged (domain or fragment) | 1 | –
2 | canine APN-Fc ectodomain (dimeric) (from UniProt P79143 71-975) (Fc fusion) | – | 1.3
3 | feline APN-Fc ectodomain (dimeric) (from UniProt P79171 64-967) (Fc fusion) | – | 11
